Assay: soluble fraction after stress (log2 fold change); higher = more stays soluble; pooled small domains, quantitative proteomics
Details: stress: pH 4
How it was run: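 Custom libraries of small protein domains were pooled and exposed to pH 4. High-throughput quantitative proteomics then measured the log2 fold change in the amount of each domain still soluble, with higher values meaning more stayed soluble. This soluble-fraction fold change stands for aggregation propensity.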

| Sequence | soluble fraction (log2) |
| --- | --- |
| HMSTKYSSNIISLVKGLMEEDQYKDLMGPPLKKEIIKKVESITDTFPYKFDKDDKEFIVKKVLISLRK | 0.148 |
| HMSTLKSALDEIPGIGAARKRALLNHFGSTRVISSVGVKDLEQVEGVSKKIALLIYGYFHDK | ≥ 0.43 |
| HMSTLSIHIPDKFAGQRLDQALAELYSQFSRSRLQQWLNDGELLVDGKSVKANKKVLGGEFIQILK | -0.00612 |
| HMSTPENLGGRNTAKARISWLENGVKQELESDFPAAEVVKLSSRFGGEVPELTVIRPSLEDIYLKMIG | -0.269 |
| HMSTPLVATLRKRIIDGHYPPGERLAEIPVAEAFGVSRTPVRLAFRTLEQEGLLEKAGKRGYAVRA | 0.0231 |
| HMSTQVPDVKERSQEEARSILESAGFKVTPAVKTEDSADIAKDMVTKTDPAAGQSVPKGTTITIYVSS | 0.298 |
| HMSTRLIGEIGVVTKDLGAGLKENGSIQIGREEWPAETKDMEHIPMGTRVKVIHIEGTRLVVEA | -0.266 |
| HMSTSRAEIIAFLKSNPSSEYKHELETKLDEMDWAEAVKGNSEESFLAYKQRQPNGTHNGEADEKLKVLLV | -0.171 |
| HMSTVISPLPGNIIKVLVPEGKSVKRGDTILTIESMKMENSIKAAYDGVVKKIYVQQAQIVMQGDPLFDL | -1.05 |
| HMSVALSENIKTRRKALKMSQEYVAEQLDISRQAVAKWEAGKSEPTTENLVKLAALFEMSVSELVE | 0.35 |
| HMSVDDVALRLEFGPSDAEALAFVHRHGAILSETTDRDTGVVSVHVRLSEADAGRFNQRYGV | -0.233 |
| HMSVDDYLKFSGSGTYWNTQDRGKTYLVNGQQRPLRDKEYLPDVMHRHVIDFITKHRDRPFYIYYSM | -0.0438 |
| HMSVDVEGNQRIPTEQVLSELRDVGVSFGKRVSGLNADTIRNQMIINNDEIAWLGVNVRGSRVYVEITERI | -0.0219 |
| HMSVERIEPPLPLIDTLLALRDALERPLSREENAFLSRRFAGGATRAQIDALAAQFRGAAAAESKV | -0.324 |
| HMSVETSDLLPLIEQVLSLNPDKVKEYQNGKKGLLGFFMGQIKQTAGVAIDVGTLKPLLEDALHKDL | -1.06 |
| HMSVEYRKTLSDGNEYQIVKEKNGYVIKKSLNEGLDYLEPMKNRKYYSSYSQAFKRLNLIAKEVNINEGYD | 0.0946 |
| HMSVFGMEIGKTTEAEAGRMYRLNKEQLNPYSGGYQYSVNPKAIDFSGLEQVTLIFDEKKVLVYVQAV | -0.179 |
| HMSVIETLLSDREREVLTHLVNGYDAKRIAEITGISTLTVRKHIANIYTKLHVNSKAQVISMAHKNKWF | -0.773 |
| HMSVIKERLTEFLTYKGIGQIKFAEAAGLSRGFVNVLGDGISSKSLNKISQAFPELNTLWLTTGEGEML | -0.061 |
| HMSVKTIRKTEFAKRLYSLMLEKNWNQSDLARASGMGRDSVSQYIRANNTPSPQNLKKLAEALGVEPVELY | 0.0509 |
| HMSVKYLQIYHAIREKILSNEYAINQQLPDEITLTKEFNSSRMTVKKALDLLVSEGLIFRKRGQGTFVLSR | ≥ 0.43 |
| HMSVLDEVRKLSFHQRNAVFLFYFEGYSMKEIAQIFHVKEGTVSSWLTRARKQLRKQMEEEVLYDESLP | -0.0883 |
| HMSVLLDDLSPREREILQLVVEGHSSTKIAGMLGLASATVDTYRSRLMAKLHIDNLPDLVRFAIRHGLIS | -0.122 |
| HMSVLLKEEGSLQLARHGAAYFIIYSAQEHPNQRRHLKISEEESNRIMEGTPIEEIFLAYSG | -0.972 |
| HMSVLQGLIESFKAGDRNLYEVAERLNVTEPFLAEALKDYRARFPKGVQVDNFWISFRPYLTIAEV | -0.886 |

| Sequence | soluble fraction (log2) |
| --- | --- |
| HMSVNEKVRLFRELNQWSQEEMAERMNMSVAGYAKIERGETNISLHKLKQIASVLQIDLLDLVS | -0.867 |
| HMSVPEAAERAIDVAQMRRALGELSPEQQRVLELAYFGGLTRQEIARATGTPLGTVHTRARLGLQNLRARL | -0.0378 |
| HMSVPRVWTDIQGRRVKGDFEGLRGDLVVLRVGGKSYAFPLVRLIASDQAYARSLVAGNPSK | 0.22 |
| HMSVPSLVGKTDSEAQSAIKSAGLKVGTVTYQYSDETEKGYVVSQSPYSGNKVNAGSTVNIVVSKGK | 0.155 |
| HMSVPSVAAVREQTGLSQVKFASLLGVSVRTLQEWEQGRRAPSGAARTLLMVAAKNPQALLEV | -0.0956 |
| HMSVSVEEDADGRVWVYYQDQKMDITDLFDENGVYGFNLEKGDRTVYVEVTKNADGTYSFTQTD | -1.34 |
| HMSVTIENQINTYFQTRDKISRDELVALIKKDFANWTDNTINIYVSSLQKRGIIHSLSRGMYALGN | 0.22 |
| HMSVTYRLLITSSPGQAEVFLDGKRVGITPFSARLAAGWYQVRVSKEGYNLWEQHVQLREDQRLTATLT | 0.229 |
| HMSWAAQVVDKMTNDQLIKSLNEIVNTGKQLGLDITVEQNGDKNFIMTVKDSKGNVQLVTPIG | -0.937 |
| HMSWEQELIEKANEIIDLYPEKRSALGPLLYLAQERDGYISDESIVEISNLVGITEVQVKSVASFYSMYK | -2.88 |
| HMSWNIHEAVEYYKGQDAPQNQFALVELLKEVQEHNGGVLTDIAVEEIAALLNTKVTFLNAVIKRYPSLK | -0.163 |
| HMSYEDLIQAVSGHFGIEIRALLSEDRKKENMIPRQVAMYLLKNKLHYTYERIGNIFSGRNHTAVMYSV | -0.403 |
| HMSYGKVQFVIDAKDAVLSIDGKETDYEKPVKLTYGSHTITVYSSDYDTWKRNLYVNSEKSTVVINLA | -0.0156 |
| HMSYKDIKEASDTGTYRDEENNIDVKWQKLFNGHNEYFDIEAYRDGERVEINNQQADRYIYLIKQEMD | -0.357 |
| HMSYPEIFQSLTEREQKIADMIAEHLSNKEIAEKMFLSEGTIKQYINQIYSKLQITGDIRNKRKQLIELFH | -0.0222 |
| HMSYTPGQWVEASMPNATFFRIVPSGNATADKMLAVATPMKVISTSGTYVKVELDSGDVGFVPEIMV | 0.102 |
| HMTAEASELRERIRAAMATLPPAQQRVIELAYFEGLTQREIAALLNEPLGTIKTRMRLGMRKLKDVL | 0.367 |
| HMTAIKAGDLVKITGTKYYGGQTIPGWVKNQNWYVQEVSGDRAVINKNESGTNAIMSPIRVSDLTPVS | -0.0468 |
| HMTALPPNVSIDSDERRLLEAIGFDPVDMDVLARDGQFSSVDLFRLLVSLELKGLVENQHGAYQRL | -1.67 |
| HMTALSAREHEVLQLITRGYTADEIAAMLQISRHTALTYVRRIYSKLKVNSKAEAIFEVRQR | -0.215 |
| HMTANPHKPEPLQIDTSDITPGVTVIHKAFGNGTVVSVDNNRILIDFDGIEKKFPFPGAFLYGFLQK | -1.17 |
| HMTAPDDFIRAEVTASGKNGMAVAELSKRVRTRFKSFKVRELGYPHLAGYLADVEGVRVYKQGRENWVAK | -0.241 |
| HMTAQASDIEKVLQVIETLGFRGHTLPGENRTAIGVTGNRGSIDPAHFENLPGVADAIRVTKPY | -0.292 |
| HMTARPTLEKLKYMIHEAGITENSLKVIVATKGHYGLDADISTYSDDFITRWIIPNWTKIVQTISNNK | 0.0354 |
| HMTASSYMGMQLGRLEELLKKEVLSLSEKTELKDLISDFDKIPEVVSPKIIGRYLQLKNQHFAKINA | -0.2 |

| Sequence | soluble fraction (log2) |
| --- | --- |
| HMTAVVPNFKGKLISELSNFVADKNVRYTIIDSIYDPEEKSGIVIKQDPEEKTQVKHNRIIYLYVTST | -1.11 |
| HMTDDFAGRFNELLIHNQETAVTAATRLEVSPAVITKWRQGKSIPSGEYIKRIVETYHVSADYLLGVIDTP | -0.0517 |
| HMTDEEFSRIVKYTAVRYGINLYHKKVMVEGRLSNYLAANGFKSYTEYMDRVEADYTGQEAQNLINILTT | -1.3 |
| HMTDFDPDGREKLIKVQKALHFNNHQLADALRVGQATFSSYIYGRVAAGVPVRVVKAAEDLLKNSKATV | 0.146 |
| HMTDFDWSLFTQQLKRFNLFLSYDDREKLQTFQTLYGLNELDLAEYVAKASAGEKNGLNFNYLRQLINKEK | -1.08 |
| HMTDFNTFSDAIIAAVGSRASGLKVVDNAVSVMVDVSGLNEDQRVEIEADVRAAAEHAGAQSVRIMLT | -0.5 |
| HMTDLALHIGKTLRELRQRRGWSLDKTAQATGVSKAMLGQIERGESSPTVVTLWRISSGLQASFSEFLPP | 0.0792 |
| HMTDLDVAVTMTVALEEAVNGATRRVRLPNGKELNVKIPAGVAAGQQIRLKGQGETAPGHRPGDVLITVNI | -0.626 |
| HMTDLQNDIQAFNLKKMSYQHETKKLEEKRNPEKLEKLEQDIQALYLRIMENPNMRAFDSAKQALYLQIM | -1.55 |
| HMTDLVVGLAGITLEPLRPAGKAEFNGSVVDVVSLGDYIEKSTAIQIVEIEGNRIVVHHGED | -1.09 |
| HMTDQYEVQNLVGLTVREAQEKEGVKDIFEVREVGSEFSAEYDAGLIVRQSPDAGEQRKGEGLVIEVWVSA | -0.409 |
| HMTDSLELADLLRRAIITGEYKPRERLVEMELAQKYSVSRTPVREALKHLEALGLVKMERYKGAMVAD | -0.573 |
| HMTDSQLVEAENHVALRQAMAHLGPRERELIGLYYFEEQSQTQIAARFGVSQMQVSRWLTSAVGRIRGQMA | 0.131 |
| HMTDWNTVEKETLSAIQKVLSGQASWIDLSPADHSIRHMQHEMVQQAGLISQSYGKEPMRRIRIYQNP | -0.036 |
| HMTEDADIERRLTGILASAGWYRSLAVEVKEGIVYLDGATASGNHRDWAGSLAAKTEGVVAVVNRIEVQP | -0.285 |
| HMTEDIAVRILEFLEDNNGFYALNDKTPSEKIHDLFGVSKKKFKIALGGLYKQRLITVSDAGVTLVK | -0.404 |
| HMTEDTPIIVERVVADIDENVVAIVRKFKDAFKSITAQREIKKKLRSILWVNYQIKDQEVFDKAYQYIEMY | -0.784 |
| HMTEEDVVIFSGLSDRDLKMVQTELANSGIKYTLPTSGTVSVPNSEIARAQMVLAMAGIPRS | -0.0859 |
| HMTEEVIIQNYIGKNFNDVRDELEAKGITVDEPNMKYSDEFKENTIMAQSIKPGQPLKPGGFNSIKFDVS | 0.147 |
| HMTEFFNMQDMFYFKLTGDVTSKERRQSLGKILGIGYGNAAQMVSRLNNYGITKEEFTNAINEIEKQMEAG | -0.511 |
| HMTEISGIEKFLASGAINGIGPAMAKKIVAEFGEKTLEIIAKSPNELLKVPGIGKKTAEKISTSYLEQ | 0.0637 |
| HMTEKEEERTEDLNYYRLNLISMLKSSYPEYLDDEEFISNRSQEAAEAFEDAVRSGSNYLDASAESNRTLY | -0.717 |
| HMTEKIRLTVDEAGKNQRVDKYISTLLTQFSRSSIKTWIETGNILLDNTRTKPRTLLSPGQVIDIQPRFED | -0.144 |
| HMTEKIVFNIDGQTGRIDKILADFMTGTSRSQIQAWVKDGNLMVNDKAVKSNYKVQDGDLLELTIPEPEQ | -0.378 |
| HMTELIEDYVELIGDLIRHRGEARAADIANRMAVSQATVSKMIRRLNELGLVTSKPYRSLFLTDEGQKMAE | -0.469 |
